Biological target: T1, human TRAP1 (mitochondrial Hsp90) (human, UniProt Q12931 60-704)
T1 sequence (looked up): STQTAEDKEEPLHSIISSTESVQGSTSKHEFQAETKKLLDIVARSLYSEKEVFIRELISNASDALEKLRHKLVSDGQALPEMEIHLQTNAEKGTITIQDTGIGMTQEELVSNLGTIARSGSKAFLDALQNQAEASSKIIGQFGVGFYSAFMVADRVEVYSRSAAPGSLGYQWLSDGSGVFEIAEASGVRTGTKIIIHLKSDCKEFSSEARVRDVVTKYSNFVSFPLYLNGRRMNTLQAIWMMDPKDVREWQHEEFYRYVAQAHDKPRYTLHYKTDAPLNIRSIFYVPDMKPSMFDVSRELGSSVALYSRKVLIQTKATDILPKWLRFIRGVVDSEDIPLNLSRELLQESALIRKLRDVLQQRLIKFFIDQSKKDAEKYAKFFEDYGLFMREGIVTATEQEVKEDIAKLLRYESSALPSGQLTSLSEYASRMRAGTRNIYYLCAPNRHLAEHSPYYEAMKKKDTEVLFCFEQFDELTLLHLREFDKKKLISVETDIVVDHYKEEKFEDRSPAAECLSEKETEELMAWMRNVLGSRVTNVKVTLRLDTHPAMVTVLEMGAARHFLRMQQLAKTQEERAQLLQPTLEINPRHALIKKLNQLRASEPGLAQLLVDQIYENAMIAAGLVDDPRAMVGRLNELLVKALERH
Assay: cell-based or functional assay

acceleration of TRAP1 ATPase activity, EC50: 6.6 µM | acceleration of TRAP1 dimer closure, inter-protomer FRET assay, EC50: 3.6 µM
B1: SdhB160 (truncated human succinate dehydrogenase B subunit, truncated at K160) (domain or fragment, UniProt P21912 29-160, looked up)
chain: AQTAAATAPRIKKFAIYRWDPDKAGDKPHMQTYEVDLNKCGPMVLDALIKIKNEVDSTLTFRRSCREGICGSCAMNINGGNTLACTRRIDTNLNKVSKIYPLPHMYVIKDLVPDLSNFYAQYKSIEPYLKKK
